Our source for the Kd and koff values is publication PMC3630103 (2013).

For orientation: Kd means the equilibrium constant for the complex coming apart. As usually defined, the koff is a measure of how fast the partners let go of each other. Low values mean a long-lived complex, high ones a short-lived complex.

In this test the target is CHIKV pE2-E1 (E3-E2-E1) of the CHIKV-LR strain (Chikungunya virus (strain La Reunion …, UniProt Q8JUX5)). Kind of test: SPR.
CHIKV pE2-E1 (E3-E2-E1) of the CHIKV-LR strain (Chikungunya virus, sequence (Q8JUX5 whole entry, looked up): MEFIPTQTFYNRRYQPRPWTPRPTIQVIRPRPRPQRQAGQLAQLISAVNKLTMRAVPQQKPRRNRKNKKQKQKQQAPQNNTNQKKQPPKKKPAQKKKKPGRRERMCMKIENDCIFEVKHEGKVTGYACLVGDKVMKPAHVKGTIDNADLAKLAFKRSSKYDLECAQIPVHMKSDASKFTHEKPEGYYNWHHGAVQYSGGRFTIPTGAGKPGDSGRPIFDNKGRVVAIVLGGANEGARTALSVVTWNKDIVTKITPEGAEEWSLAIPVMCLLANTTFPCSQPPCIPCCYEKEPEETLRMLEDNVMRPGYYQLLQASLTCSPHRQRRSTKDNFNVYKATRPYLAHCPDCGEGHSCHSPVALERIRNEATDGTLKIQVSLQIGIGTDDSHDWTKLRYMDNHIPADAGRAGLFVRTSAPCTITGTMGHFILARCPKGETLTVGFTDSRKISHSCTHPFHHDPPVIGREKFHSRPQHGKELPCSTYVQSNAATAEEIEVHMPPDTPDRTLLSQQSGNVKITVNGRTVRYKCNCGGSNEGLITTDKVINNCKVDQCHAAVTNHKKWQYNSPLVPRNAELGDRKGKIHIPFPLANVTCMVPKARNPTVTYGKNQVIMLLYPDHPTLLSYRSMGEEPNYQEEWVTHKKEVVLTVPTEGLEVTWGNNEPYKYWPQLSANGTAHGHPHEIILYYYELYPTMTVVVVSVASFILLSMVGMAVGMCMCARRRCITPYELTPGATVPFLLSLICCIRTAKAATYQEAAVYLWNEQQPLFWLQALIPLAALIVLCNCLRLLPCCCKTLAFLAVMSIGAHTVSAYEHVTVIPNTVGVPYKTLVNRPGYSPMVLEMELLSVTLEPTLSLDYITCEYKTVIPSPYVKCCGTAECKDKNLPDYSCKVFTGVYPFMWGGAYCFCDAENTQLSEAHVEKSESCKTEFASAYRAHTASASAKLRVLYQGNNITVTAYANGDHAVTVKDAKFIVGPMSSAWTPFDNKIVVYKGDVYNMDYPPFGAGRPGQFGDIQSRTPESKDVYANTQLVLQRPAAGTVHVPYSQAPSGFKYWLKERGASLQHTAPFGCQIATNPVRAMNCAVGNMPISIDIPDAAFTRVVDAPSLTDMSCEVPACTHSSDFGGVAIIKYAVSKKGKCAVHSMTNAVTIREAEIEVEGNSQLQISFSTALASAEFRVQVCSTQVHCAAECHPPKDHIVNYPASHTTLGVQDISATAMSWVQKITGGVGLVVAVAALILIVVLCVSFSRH

B1: chimeric mouse-human CHK-152 N297Q (aglycosyl variant) (antibody, V domains shown)
VH: QVQLQQPGAALVKPGASAMMSCKASGYTFTSYWITWVKQRPGQGLEWIGDIYPGTGRTIYKEKFKTKATLTVDTSSSTAFMQLNSLTSEDSAVYYCARGYGSPYYALDYWGQGTSVTVSS
VL: DIVLTQSPASLAVSQGQRATISCKASQSVDYDGDSYVNWYQQKPGQSPKLLIYDASNLESGIPARFSGSGSGTDFTLNIHPVEEEDVATYYCQESNEDPRTFGGGTKLEIK
B1 showed a Kd of 3.9 nM and a koff of 0.00051 s⁻¹.

B2: chimeric mouse-human CHK-152 (antibody, V domains shown)
VH: QVQLQQPGAALVKPGASAMMSCKASGYTFTSYWITWVKQRPGQGLEWIGDIYPGTGRTIYKEKFKTKATLTVDTSSSTAFMQLNSLTSEDSAVYYCARGYGSPYYALDYWGQGTSVTVSS
VL: DIVLTQSPASLAVSQGQRATISCKASQSVDYDGDSYVNWYQQKPGQSPKLLIYDASNLESGIPARFSGSGSGTDFTLNIHPVEEEDVATYYCQESNEDPRTFGGGTKLEIK
B2 displayed a Kd of 3.1 nM and a koff of 0.0004 s⁻¹.
